In the DeepSol protein solubility set:

Experiment: soluble on expression in E. coli; label from the status in PepcDB or PDB records

Row | Sequence | soluble on expression in E. coli
1 | MKKIALTLAATSITLVSYSAFSAQDAEHVRLATTTSTYHSGLLDYLLPQFEKDTGYKVDVIAAGTGKALKMGENGDVDLVMTHAPKAEGTFVEKGYGVLPRKLMYNDFVIVGPKADPAKIKDDESVLDVFKEIANKNATFISRGDDSGTHKKEMGFWAQTKIEPNFGGYRSVGQGMGPTLNMASEMQGYTMSDRGTWLAYQNKLDLEILFQGDEKLFNPYQVILVNPERYPTINYQGAKAFSDWLVNPRGQELINGFRLNGKQLFVANAESK | not soluble
2 | MTTALHITLITETFPPEINGVANTLGRLCEGLRARGHQVELVRPRQGCDQSRASDEALLLCRGWPLPGYPGLQWGQSSMHKLLRRWKRQRPDVLYIATEGPLGLSALRAAKRLGISVVSGFHTNFQQYSSQYGLGLLTRLLTHYLRWFHNRSQLTLVPSASQHLELERRHFERLALLSRGVDSQLFHPAKRLDTLRADWGLGTDDLAVIHVGRLAQEKNLGLLKRCFERLQATYPQRRMKLIVVGDGPQRGALEKSLPEALFCGSQRGEALAAHYACGDLFLFPSLTETFGNVVLEALASGLAVVAYDQAGAAQHIRHGYNGVLAMPGDESAFCDAASWLLEEPETLRRVRLNARQHASRQGWAAVIEQFEDRLRSACEHGPAEDYEGLIEATVKPRSAVETLGTARGLPPSPPGAGSLEHHHHHH | soluble
3 | MSLEFLEQEGQEVLTKEIKAGFCEITPSSITEQTTKPQLDETQLVDEYVHTKELETTPIPISFATKEVLFEEVFNTPSTQQVDESVLVNEYIELTQQIKNASEQVSSNHTHKFSVATEPAATKAVSETMLLDDYVEMVEQDVQAQTALPQAALDPTVSLTFSSPIDSNAILVYPEMKVPHVFDTVAPTTTTVPLDQTQLLDELVEVPVLTHTVTPAPLQPKAAPTNFALDQTQLVDELVTVPLTHTLVNESAPVTPVVVTSPAAEHSFSITTVDKANLTNALSQTVVIKPAEDSAHQSAVLDKEIATKQAQLQQLQAQIELRQAQLETPPVTYMGVEEYKLLPVQDVVPVQPTVSFEMTLLQEQLDKALKHNAALQIQLEEQLAKPLQYDQSPVLQERIELLQNQNTNLTQELNELQQKLFKSQNNSLLLARLEEENRTLKQHLQNNLPEANQLNFVLEKQLEQLQQDKHSLTLQIEQYKFDSKKHQEQLALIPSLRSEINSLETEVISLKQTNQRLSLIERENNFLKTEIKQLRETKLNDENTKYRNLLKQYELMRADSDAKLKELEHEQHLAHQHHQEQLAQLQRHNEALVKELDQVKATNFELGLAAQGFEQQKVVLEQKNSSLLASLQAAEENVQALGITNSELQNQLNVLEFTHKEKTAFDSKTLTLTKQQLEQTQFDLSLTQEQLATFKQQNQSLTDKLMASETQLNHLQQSDENLTQLQTQHELLQESYNKLQDEANHTQQQFHQAQNELDAAHQQLALFKQNNEELTDKCSNIQNELHDLNRVKTNWENLNTEHNLLQDKYAQQKEQMQHEHSNLAQIQAEHELLQESYNKVKAELNEIQITNLNEANAQYQDLLSAYELLQSNHNKLKQELQVLNQVNLEKQQLAQKLHNTHQSLSQTHAELTQLQAAYNNLQATPPVSDELLEQFNQVQLEKQRLLQQNLALVHELQYFNELNSSQTHEIKTKQDETVKEVIIVEKEIPVPPEKKPRLKKRDIVIENKEDALGKLSKKERIQAYAERLAKINGKQEGHHHHHH | not soluble
4 | SNAMLNTLIVGASGYAGAELVTYVNRHPHMNITALTVSAQSNDAGKLISDLHPQLKGIVELPLQPMSDISEFSPGVDVVFLATAHEVSHDLAPQFLEAGCVVFDLSGAFRVNDATFYEKYYGFTHQYPELLEQAAYGLAEWCGNKLKEANLIAVPGCYPTAAQLALKPLIDADLLDLNQWPVINATSGVSGAGRKAAISNSFCEVSLQPYGVFTHRHQPEIATHLGADVIFTPHLGNFPRGILETITCRLKSGVTQAQVAQALQQAYAHKPLVRLYDKGVPALKNVVGLPFCDIGFAVQGEHLIIVATEDNLLKGAAAQAVQCANIRFGYAETQSLI | soluble
5 | MGSDKIHHHHHHMRYFARIAELGSFTRAASELGVAQPALSLHVRALEDQLGLQLLNRTSRGVVVTEAGQTLLVHAQAILRAVEQAEAATREQAKYPSGDVSLGILSSLSPILSIPVLEACDRRFPKIRLTISEGDSQTLRTATDIHAHDLAVNLLDVAKPTAVPLFDERLYAVGPLNAFTQRQNDLPLREALSLPLIMPSQRHGIRILLEKQALILGQKINIVRVIEGVASTKAAIRAGLGLTILGRGAVYADHQAGQLSVIPLRAPELFRRLVLDMPVNHPPTKAVLEVRQILMEVIKRLGGEGHWSCLA | not soluble
